# From the DeepSol protein solubility set
# Experiment: soluble on expression in E. coli; label from the status in PepcDB or PDB records
row,Sequence,soluble on expression in E. coli
1,MGREFIPLFEDWAATYDQTVQGLDIQYKEAFRGYDHILDAIVRKSGTHVLEFGPGTGNLTAKLLDAGKTVFGIEPSPAMRKLASDKLSGRTEIVDGDFLTFPEPPFQADTIVSSYAFHHLTDEEKRAAIKQYGKYLHLHDKIVFADTVFENAQAYQQAIDKARSQGFYQLANDLETEHYPTLDALKEMFTAEGFAVRFTQQNDFVWIMEAIKRLEHHHHHH,not soluble
2,MGRRRSHERRDLPPNLYIRNNGYYCYRDPRTGKEFGLGRDRRIAITEAIQANIELFSGHKHKPLTARINSDNSVTLHSWLDRYEKILASRGIKQKTLINYMSKIKAIRRGLPDAPLEDITTKEIAAMLNGYIDEGKAASAKLIRSTLSDAFREAIAEGHITTNHVAATRAAKSEVRRSRLTADEYLKIYQAAESSPCWLRLAMELAVVTGQRVGDLCEMKWSDIVDGYLYVEQSKTGVKIAIPTALHIDALGISMKETLDKCKEILGGETIIASTRREPLSSGTVSRYFMRARKASGLSFEGDPPTFHELRSLSARLYEKQISDKFAQHLLGHKSDTMASQFRDDRGREWDKIEIK,soluble
3,MGRVTLRITGTQLLCQDEHPSLLAALESHNVEVEYQCREGYCGSCRTRLVAGQVDWITEPLAFIQPGEILPCCCRAKGDIEIEM,not soluble
4,MGRYIGPVCRLCRREGVKLYLKGERCYSPKCAMERRPYPPGQHGQKRARRPSDYAVRLREKQKLRRIYGISERQFRNLFEEASKKKGVTGSVFLGLLESRLDNVVYRLGFAVSRRQARQLVRHGHITVNGRRVDLPSYRVRPGDEIAVAEKSRNLELIRQNLEAMKGRKVGPWLSLDVEGMKGKFLRLPDREDLALPVNEQLVIEFYSR,soluble
5,MGSDFDHLVNSLSDVELLNLFIQSCSQTTINGVPVPRFPPEEIQKQFVGASYEHALYEAYLFYRHIKEYAQNLGVPLNKESKVLDFGCGWGRIIRFLFKDASDQNLLGIDVDPAMITLCNETLGRGIYKTASPHPPVEFISDNSLDIIFAYSVFSHLSEATAENWVKEFSRVLRPGGIFIATTQARYFLDFCQQFQEHPELIQTGWHKTLSQAFPDIHRAISDYENGKFVHSPTGAGDVRNSSFYGETVIPRTYIENHYEKYLKLQDFFDDVNRLPQALFVLQKILEHHHHHH,soluble
6,MGSDKIHHHHHHAACQDEDHTVPTLPSGNDPEINDPVVEFYDWEKNRTELLTSTDMVLLYGGGHHRTPYTWDKERVSSYIRYVDTDNQSHWLFDSFLFLEIMDTGTGGANKMFAKGYNLESANQADWTKLIDYYFQSETGIGALDASVKEASAILGTPRQKRQIVISIPEPIVYQHPEQASSSTKYWGKIDNQTLDFSNSADRIKACKWYIDQVRAKFNEKNYQHVELAGFYWLAEKATDTRDILNAVAIYLNKLKYSFNWIPYYGADGYNQWKSLGFNYAYFQPNYFFNESVPDSRLEDACQKALTYDMHMELEFDDNALNSRGKAYRLKNYMSAFKKHGIWEKKRLAYYQGSASLLTLKKSGNAADTQLYHEFCNFVISRPIRSSH,not soluble
7,MGSDKIHHHHHHAADHVKGDGKLTSKKISVADYNEIKVDGVIDFNYEQSDDPSTVEVTVDQNLHPYVNIEVKDRVLTIAFKGAKVDHFTKFIVKTNSKWLAAAKVSGNANFMVNSPLTGDETVIKANANSLVQLKETVTVGKLDLNVSGSANMVVNHLEADKIECDIDGSGSITIKKGNAKEGDYSIVSSGDIHAFGLAVPQLSCKVTGNGLAEVHATDNLKANVVGKGNIRYKGPTAVQQRIIGKGTVEEVKE,not soluble
8,MGSDKIHHHHHHAASEAEYGKVSKAWTLHADGSQEYRSSMELTLFTHTAMNSTYGESFIVYNPDFQTLKIHSSYTRQKDGTIVKTPDNAFVEVLPRFAADAPAYNQLKEMVVVHTGLELGATIYLDYSIITKPGYYPALDINERLQETSPVKECKVSISVPEGTPLACGLYGSPVKAVEESHDGIKEVHWTLRNIPASSREAFQPKNREASPHLVASTYPSGKAALATLDKRLKESQGYESKTFAQFLTDKSGNEQEKVNIIRDHILNNLSTCPIPMAMTGYTVRDIDTVLRSAYGTPLEIAQLLNVMLNAAGIPSEVLAVYPGHLDTDACGLAAIQTLAVKATVDGKDQYLSASPLTNRGGLDKVVSLSGTSIEIETTPIQIKESRSVAISADQAKDGFAICVLPAISAGIDSWGMSALNSKRSNLFELPSLIREEVTYTVTPAEGMKLQTSTQEQVISKPFGKVTRTITPRGNTIEVVRTIELNKQQFTPAEYSDVRSLIHEWTNPDNRVLLFSL,not soluble
9,MGSDKIHHHHHHADFVSDYIWRGAYQNSGFSVQPTLGLSYGNLSLSAWGSQSLTKTDGAQEFDINLSYTIGGLGITVTDYWWNGITMPYGDYKHDHHFEGTLAYNFGENFPLTLSWSTMFAGGDDNKDGDRAYSTYINASYNIACPAEITLTPSVGFTPWKGMYDADGAAFTDIALKASKNINITDHFSLPLFVQAIVSPSFDKTYLIAGLSIGF,not soluble
10,MGSDKIHHHHHHADSVKIGFITDMSGLYADIDGQGGLEAIKMAVADFGGKVNGKPIEVVYADHQNKADIAASKAREWMDRGGLDLLVGGTNSATALSMNQVAAEKKKVYINIGAGADTLTNEQCTPYTVHYAYDTMALAKGTGSAVVKQGGKTWFFLTADYAFGKALEKNTADVVKANGGKVLGEVRHPLSASDFSSFLLQAQSSKAQILGLANAGGDTVNAIKAAKEFGITKTMKLAALLMFINDVHALGLETTQGLVLTDSWYWNRDQASRQWAQRYFAKMKKMPSSLQAADYSSVTTYLKAVQAAGSTDSDKVMAQLKKMKIDDFYAKGYIRTDGSMIHDMYLMEVKKPSESKEPWDYYKVVATIPGEQAFTTKQETRCALWK,not soluble
11,MGSDKIHHHHHHAEDMVKPIENDKDAPGTVQDVKTESLPGAVKFTYTLPSDPDLLYVLAKYTNKTGKVMEFRSSFYTNSVTVEGFGDTDTYKVELYTVDRSENRSQPQIVEVVPLTPPILSCYESLSMVSDFGGMTFEMDNKFKSDLAIYVCTPDELGDMVLAETFYSAREEIVYSVRGYDAVPRRFGIFLQDKYGNETDTLFTELTPIYERELDKTKFREMYLQNDSRVDSYDGKMEYVWNGRISKDGDSGGVGLHTGTGTKDGPAVFTFDLGVLAKLSRFALWAIQDEKHFYNDMSPRRYEVWGCATEPNPDGSWDQWVKLLDMENVKPSGSPIGILTEDDIEAAKIGDQANVPLDMPRVRYIRIKCLKNWSNNYNICFTELTFWGNDNEE,not soluble
12,MGSDKIHHHHHHAGTYNPKNTTSFNINKSNYVAKGRIYKLRLPAAGRVVTNSDITLKNSMEWTCIPYGKDKNTYYLRKGTYYLTSSKNTNVKTAYTRLTKIRKNLETYVETKKNNDNSSLRAREIKVGQKIKAMGAMYDYDGIDYYRFTIDSPQMVTMKMTNAPIYQLGNGNIFSKMGITMFSDNNPVGDNTILYPETFSSKGNKSASQSWYLAKGTYYFSVSTRGLYNFQLTAVPDTRMVPADTEIESLKDTKDGVVASLRDALHAKTYELAWREKGSKFAPFSSSSNTTKVSTASATRYLKVNGHEIPVQIGRKLVNGQTYEFVARGVSNPNYIRYGNPETDNYFGAWTKIVEHTYYAPANGVPGAVELNAQADNTYHNIHVSWTKIDTAQSYRVAYRQKGTNKWYYEVTDQDSNAVTGITRNKTYELKLQALNGKEEGPWSTVKEVFLK,not soluble
13,MGSDKIHHHHHHALLWFSRFQRTGKLCVSLGWLLLTLLSLQPVADSLLKPIEDTYPTWRGEQPVNYVVVLGGGYTWNPEWAPSSNLINNSLPRLTEGIRLWQANPGSKMIFTGAAAKTNPVSTAEAGARVAESLGVPRSDIIVLDRPKDTEEEALAVKRAIGDAPFLLVTSASHLPRAMIFFRHAGLDPLPAPANQLAVTSPLNPWERAIPSPVWLMHSDRVGYETLGRVWQWLKGSSGEPGQE,not soluble
14,MGSDKIHHHHHHAPTSIPDSALRTAAQLREQALADSTGFAVVESLTTEVGPRIAGGEADPRAVAWAKAKFKSLGFDKVWTEPVTFPKWERRSEQAAVIGAHAQPLHITALGGSPGGTVEGEIVRFENLAALQAAPAGSLAGKIAFVDYQMVKARDGKDYGNGGAVRSKGPSEAIRKGAIGFVMRSAGTDSHRVPHTGITRFDEGLTPVPAAALSVPDANQLARLAALGSTRVRLALDCGWDGTATSYNVIGEITGRSKPKEVVVIGGHLDSWDLGTGAIDDGAGVAITMAAGHLIGQLKQAPKRTIRVVAFANEEQGLYGGKAYAAAHGKDAKDMALHQIGAESDFGAGRIYAFNTGSAAPEQSRAAT,not soluble
15,MGSDKIHHHHHHAQFKIGGKKINVGKVVQAGSDAAKAITLSDSDIAAMSKEYMQWMDTHNPLTAADSEYGKRLEKLTGHIKEVDGLKVNFGVYEVVDVNAFACGDGSVRICAGLMDIMTDDEVMAVVGHEIGHVIHTDSKDAMKSAYLRSAVKNAAGAASSTVSKLTDSELGAMAEALAGAQYSQKQESEADDYGFEFSIKHNIDPYAMYNALNKLLELSAEAPKESKFQKMFSSHPDTAKRVARAKEKADNYTKNK,not soluble
16,MGSDKIHHHHHHAQIADRVYKTDYHIDPEKARELSVELDNISFFKDNEYTGKFTKGYSLPGLWVQGKAVYYPLRNIKLEAGVHMLIYHGANKYPSMAYQDIAYWKGDQYQKGVHVLPYFRAQMALSDHVNIVLGNIYGASNHNLIEPLYNPELNLTCDPEAGLQLLYDSKAFDLDVWVNWQSFIFREDVHQEAFTVGISSRLKYNDPASRFHFYTPVQGLVQHRGGEIDTIFNNSVQTLMNGAIGVGGVWNTGHRIFKNLNVELDATGYYQQAGEIWPFDSGYGLYARASADIYDFRVKTSYWTCEDFISMFGSPFFGAASMIDEGVTFDRPQMIYLGVEYSRQLAKGFSIGVDVDVFHHLSGDMNDADGVKQPMGSATSFTAGVYMRINPSFLIKKF,not soluble
17,MGSDKIHHHHHHAQKKVIIEDEEPNSVMFVSTNKAGDEIIRIMNETRLPRFHEPKAPRFVLTDRQGKFALGIGGYVRATAEYDFGGIVKDVDFYPALIPNKGSADRARNQFQMDISTSTLFLKLVGHTKRLGDFVVYTAANFRGDGKTFELQNAYATFLGFTLGYSYGNFMDLAALPPTIDFAGPNGSAFYRTTQLSYMCDKLKNWKFGVGVEMPSVDGTTNQYLTINTQRMPDFTASAQYNWNANSHLKLAAIVRSMTYSSSVDNKAHSKAGYGLQASTSFNVTPKWQVYGQVNYGKGIGQYLNDLSNLNVDIVPNPEKEGRMQTLPMLGWFAGLQYNISKNVFVSGTYSLSRLYSEHTYPSDEPDMYRKGQYLVANLFWNVTSNLQVGAEYLRGWRTDFSSNTRHANRMNALVQYSF,not soluble
18,MGSDKIHHHHHHAQKNAAAVTLNLAKAVTQSPKTVLMSELASDVRYFPLETTDNCLLGNECSIIYAGNSIIAGDAQTRSFYRFDKNGKFMNKIGRQGQGPEEYAVGLLFFTDPDNQKLYVQDFQDIICYGFNGKFLRRIPAPHLNMGTGAVDGQGSILYCDNNYFMRKDNPQQLFLIDENGKKLKIWKGYMEPGKKYGVNLSTRDVMYCYGGDIYFKPALENLIYKIDANRKKTLAWKFDCSGKDVDVSANEIDPGKRFQSIAVQQVFESDRYFFVLYVLKNESFVGLYDKQKKSFSNVIIKDDLAAGFDFTPPGTGLGNQLANARMVGYLSKGKRYSKALLPERKKELDELINRLDEEDNPVMVVVTLK,not soluble
19,MGSDKIHHHHHHAQSIAKGSTPDFSEARTLIKGALENPETKDDAKTWYVAGFIEDQQFSNERTKQVLGQQPDEPVMYEALGSILPYFEKAYELDQLPNEKGKVKPKFTKDIKGILGANHVYYINGGAYYFDQKDYNKAYDFFEQYLKISDMPMFKGEAVAERDSNFMTVQFYAAVAATQLGDSQKAIAALERAKNTDYRASEVYQYLCYEYEQAKDTVNLEKTLEEGLNKFPEEQYFLMSLINNYIYSNRNEKAIEYLNTAIAKDSNNPQLYDVMGRVYETGLKDYAKAEEYFKKALAINPDYIESLSNLGRVYYNQGVNKQGEANMINDAKQYQEELGKAKEFFKQALPYFEKAHQMKPEEREYMTALRGIYYNLNMGDKFDAIEAEMNK,not soluble
